Earlier results on one substance are cited in publication PMC7448383.

pKd: −log10 of the molar value.

The target in this data set is GST (Schistosoma japonicum) [GST: P08515].

Chain of GST (P08515 2-218): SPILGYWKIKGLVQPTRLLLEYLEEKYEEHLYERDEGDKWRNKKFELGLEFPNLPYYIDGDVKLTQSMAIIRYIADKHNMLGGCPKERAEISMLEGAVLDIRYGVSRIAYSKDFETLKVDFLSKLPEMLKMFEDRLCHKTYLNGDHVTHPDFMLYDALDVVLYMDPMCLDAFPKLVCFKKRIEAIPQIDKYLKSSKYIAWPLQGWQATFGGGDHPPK

Consider GST (from UniProt P08515), for which the negative logarithm of the Kd (pKd) is 6.47.
